From the supplement of paper PMC7877785
± gives the uncertainty stated by the source.

Assay: self-splicing fitness, log relative to wild type (ln ratio); higher = more splicing; Tetrahymena group I intron in knt gene, E. coli kanamycin selection, DiMSum; sequences stand for … in CUCUCU…GGAGGGAAAAGUUAUCAGGCAUGCACCUGGUAGCUAGUCUUUAAACCAAUAGAUUGCAUCGGUUUAAAAGGCAAGACCGUCAAAUUGCGGGAAAGGGGUCAACAGCCGUUCAGUACCAAGUCUCAGGGGAAACUUUGAGAUGGCCUUGCAAAGGGUAUGGUAAUAAGCUGACGGACAUGGUCCUAACCACGCAGCCAAGUCCUAAGUCAACAGAUCUUCUGUUGAUAUGGAUGCAGUUCACAGACUAAAUGUCGGUCGGGGAAGAUGUAUUCUUCUCAUAAGAUAUAGUCGGACCUCUCCUUAAUGGGAGCUAGCGGAUGAAGUGAUGCAACACUGGAGCCGCUGGGAACUAAUUUGUAUGCGAAAGUAUAUUGAUUAGUUUUGGAGUACUCGUGGUCG
Outline: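 Colonies from six replicate transformations of E. coli BL21(DE3) were pooled and amplicon-sequenced on an Illumina HiSeq 2500. The library placed an intron with all eight P1ex-region nucleotides randomised inside the knt kanamycin-resistance gene on pET-22b(+), and cells grew overnight at 37°C or 30°C on LB agar with or without 25 μg/mL kanamycin (plus 100 μg/mL carbenicillin, 50 μM IPTG, 0.2% rhamnose). Fitness is the DiMSum error-weighted combination of wild-type-normalised replicate fold changes, kanamycin versus none.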

Sequence | self-splicing fitness (ln) (30 °C) | self-splicing fitness (ln) (37 °C)
CCGGAGCAAUAUUACGCGCG | -2.44 ± 0.2 | -0.558 ± 0.22
CCGGAGCAAUAUUACGCUAG | -3.07 ± 0.21 | -2.33 ± 0.26
CCGGAGCAAUAUUACGCUAU |  | -2.1 ± 0.2
CCGGAGCAAUAUUACGCUGG | -1.99 ± 0.21 | 
CCGGAGCAAUAUUACGGAGC | -3.73 ± 0.48 | -2.55 ± 0.44
CCGGAGCAAUAUUACGGGCA | -3.1 ± 0.48 | -2.4 ± 0.41
CCGGAGCAAUAUUACGUAAG | -0.00724 ± 0.087 | 0.176 ± 0.13
CCGGAGCAAUAUUACGUACA | -3.36 ± 0.4 | 
CCGGAGCAAUAUUACGUAGC | -2.74 ± 0.31 | -2.04 ± 0.46
CCGGAGCAAUAUUACGUAGG | -3.55 ± 0.26 | -2.66 ± 0.3
CCGGAGCAAUAUUACGUAGU | -4.17 ± 0.25 | -3.22 ± 0.22
CCGGAGCAAUAUUACGUCCG | -3.03 ± 0.37 | 
CCGGAGCAAUAUUACGUCGU | -3.43 ± 0.22 | -1.51 ± 0.18
CCGGAGCAAUAUUACGUGGG | -3.39 ± 0.31 | -2.78 ± 0.38
CCGGAGCAAUAUUACGUGUU | -3.46 ± 0.24 | -2.01 ± 0.19
CCGGAGCAAUAUUACGUUAC | -3.75 ± 0.2 | -1.67 ± 0.2
CCGGAGCAAUAUUACGUUGG | -3.57 ± 0.24 | -2.47 ± 0.26
CCGGAGCAAUAUUACGUUUC | -2.4 ± 0.31 | -2.74 ± 0.48
CCGUAGCAAUAUUACGACGA | -0.268 ± 0.11 | -0.689 ± 0.1
CCGUAGCAAUAUUACGAGAU | -3.86 ± 0.32 | -2.29 ± 0.3
CCGUAGCAAUAUUACGCACC |  | -2.21 ± 0.37
CCGUAGCAAUAUUACGCCAA | -3.21 ± 0.41 | -2.77 ± 0.4
CCGUAGCAAUAUUACGCCAU | -3.26 ± 0.25 | -2.77 ± 0.36
CCGUAGCAAUAUUACGCGAG | -3.82 ± 0.24 | -2.76 ± 0.32
CCGUAGCAAUAUUACGCUAG | -3.02 ± 0.28 | -2.14 ± 0.25
CCGUAGCAAUAUUACGCUUG | -1.48 ± 0.069 | -0.347 ± 0.075

Sequence | self-splicing fitness (ln) (30 °C) | self-splicing fitness (ln) (37 °C)
CCGUAGCAAUAUUACGGCCG | -1.05 ± 0.16 | -0.466 ± 0.18
CCGUAGCAAUAUUACGGGGC | -2.28 ± 0.24 | -2.31 ± 0.34
CCGUAGCAAUAUUACGGGUC | -2.96 ± 0.21 | -2.55 ± 0.2
CCGUAGCAAUAUUACGGGUG | -3.59 ± 0.21 | -2.11 ± 0.16
CCGUAGCAAUAUUACGGUGC | -2.96 ± 0.16 | -1.93 ± 0.16
CCGUAGCAAUAUUACGUAAU | -4.17 ± 0.26 | -1.96 ± 0.26
CCGUAGCAAUAUUACGUAUU | -4.16 ± 0.28 | -3.58 ± 0.39
CCGUAGCAAUAUUACGUCAA |  | -1.2 ± 0.27
CCGUAGCAAUAUUACGUCGC | -3.45 ± 0.41 | -1.77 ± 0.26
CCGUAGCAAUAUUACGUGAA | -3.73 ± 0.18 | -2.34 ± 0.18
CCGUAGCAAUAUUACGUGGG | -4.15 ± 0.2 | -3.05 ± 0.17
CCUAAGCAAUAUUACGAAAU | -2.79 ± 0.18 | -2.77 ± 0.29
CCUAAGCAAUAUUACGAACA | -3.01 ± 0.29 | -1.96 ± 0.32
CCUAAGCAAUAUUACGAAGU | -2.62 ± 0.13 | -1.21 ± 0.13
CCUAAGCAAUAUUACGACAC | -3.33 ± 0.44 | -2.03 ± 0.29
CCUAAGCAAUAUUACGAGCG | -0.823 ± 0.097 | -0.11 ± 0.11
CCUAAGCAAUAUUACGAUCC | -3.83 ± 0.29 | 
CCUAAGCAAUAUUACGCGUU | -3.27 ± 0.15 | -2.69 ± 0.16
CCUAAGCAAUAUUACGCUAA |  | -2.31 ± 0.27
CCUAAGCAAUAUUACGCUUC | -3.16 ± 0.28 | 
CCUAAGCAAUAUUACGGGAA | -3.52 ± 0.22 | -1.83 ± 0.2
CCUAAGCAAUAUUACGGGAU | -4.35 ± 0.22 | -3.29 ± 0.21
CCUAAGCAAUAUUACGGGCU | -3.03 ± 0.33 | -2.46 ± 0.33
CCUAAGCAAUAUUACGGUCG | -0.889 ± 0.065 | -0.252 ± 0.086
CCUAAGCAAUAUUACGGUGA | -3.89 ± 0.25 | -2.28 ± 0.16
CCUAAGCAAUAUUACGGUUU | -4.49 ± 0.34 | -3.07 ± 0.34

Sequence | self-splicing fitness (ln) (30 °C) | self-splicing fitness (ln) (37 °C)
CCUAAGCAAUAUUACGUAUG | -1.82 ± 0.082 | -0.95 ± 0.087
CCUAAGCAAUAUUACGUGGG | -3.51 ± 0.16 | -2.5 ± 0.15
CCUAAGCAAUAUUACGUUAG | -1.95 ± 0.11 | -2.03 ± 0.11
CCUCAGCAAUAUUACGAAAA | -2.77 ± 0.22 | -2.26 ± 0.33
CCUCAGCAAUAUUACGAACU | -2.63 ± 0.37 | -1.64 ± 0.38
CCUCAGCAAUAUUACGAAGG | -3.6 ± 0.34 | -1.84 ± 0.4
CCUCAGCAAUAUUACGAAGU | -3.54 ± 0.17 | -1.88 ± 0.15
CCUCAGCAAUAUUACGACGU | -3.17 ± 0.18 | -2.68 ± 0.24
CCUCAGCAAUAUUACGACUC | -3.68 ± 0.43 | 
CCUCAGCAAUAUUACGAGGA | -2.54 ± 0.29 | -1.09 ± 0.14
CCUCAGCAAUAUUACGAUCG | -0.809 ± 0.1 | -0.00907 ± 0.14
CCUCAGCAAUAUUACGCAGA | -3.39 ± 0.34 | -2.27 ± 0.33
CCUCAGCAAUAUUACGCCUA | -2.6 ± 0.21 | -1.6 ± 0.2
CCUCAGCAAUAUUACGCGUU | -3.88 ± 0.23 | -2.96 ± 0.4
CCUCAGCAAUAUUACGCUAC | -1.66 ± 0.33 | 
CCUCAGCAAUAUUACGCUCA | -2.6 ± 0.39 | -1.74 ± 0.22
CCUCAGCAAUAUUACGGAUG | -0.811 ± 0.066 | -0.682 ± 0.087
CCUCAGCAAUAUUACGGCCU | -4.16 ± 0.39 | -1.59 ± 0.29
CCUCAGCAAUAUUACGGGAA | -2.4 ± 0.19 | -3.35 ± 0.3
CCUCAGCAAUAUUACGGGUC | -2.5 ± 0.27 | -2.56 ± 0.36
CCUCAGCAAUAUUACGGUCU | -3.73 ± 0.25 | -2.56 ± 0.27
CCUCAGCAAUAUUACGUAAC |  | -2.13 ± 0.47
CCUCAGCAAUAUUACGUCGU | -3.24 ± 0.15 | -2.82 ± 0.24
CCUCAGCAAUAUUACGUCUC | -3.73 ± 0.24 | 
CCUCAGCAAUAUUACGUCUU | -3.91 ± 0.27 | -2.55 ± 0.26
CCUCAGCAAUAUUACGUGCU | -3.84 ± 0.33 | -2.62 ± 0.39

Sequence | self-splicing fitness (ln) (30 °C) | self-splicing fitness (ln) (37 °C)
CCUCAGCAAUAUUACGUGGC | -3.94 ± 0.22 | -3.01 ± 0.24
CCUGAGCAAUAUUACGACUU | -3.87 ± 0.27 | -2.46 ± 0.24
CCUGAGCAAUAUUACGAUGA | -2.57 ± 0.2 | -1.44 ± 0.18
CCUGAGCAAUAUUACGAUGG | -4.46 ± 0.21 | -2.58 ± 0.19
CCUGAGCAAUAUUACGCCAU | -3.2 ± 0.4 | -2.13 ± 0.33
CCUGAGCAAUAUUACGGCAA | -2.14 ± 0.22 | -2.42 ± 0.21
CCUGAGCAAUAUUACGGCCA | -2.01 ± 0.34 | -2.05 ± 0.29
CCUGAGCAAUAUUACGGGCA | -2.93 ± 0.19 | -1.83 ± 0.17
CCUGAGCAAUAUUACGGGCG | -2.62 ± 0.23 | -2.1 ± 0.18
CCUGAGCAAUAUUACGGGGA | -3.07 ± 0.15 | -3.37 ± 0.2
CCUGAGCAAUAUUACGUAGC | -4.49 ± 0.27 | -1.77 ± 0.16
CCUGAGCAAUAUUACGUCAA | -2.73 ± 0.22 | -2.36 ± 0.3
CCUGAGCAAUAUUACGUCCA | -1.86 ± 0.28 | 
CCUGAGCAAUAUUACGUCGC |  | -2.54 ± 0.39
CCUGAGCAAUAUUACGUCUU |  | -2.42 ± 0.23
CCUGAGCAAUAUUACGUGAG | -3.61 ± 0.27 | -2.28 ± 0.24
CCUGAGCAAUAUUACGUGUU | -4.7 ± 0.34 | -2.52 ± 0.17
CCUUAGCAAUAUUACGAAAU | -3.26 ± 0.29 | -2.12 ± 0.31
CCUUAGCAAUAUUACGAACA |  | -0.92 ± 0.29
CCUUAGCAAUAUUACGAAUC | -2.65 ± 0.36 | -1.38 ± 0.34
CCUUAGCAAUAUUACGACGG | -2.31 ± 0.17 | -2.95 ± 0.3
CCUUAGCAAUAUUACGCAAA |  | -2.89 ± 0.34
CCUUAGCAAUAUUACGCGUA | -3.27 ± 0.38 | -2.54 ± 0.36
